What all share (type): biochemical
Series [1] can be described thus: HTP-analysis of supernatants pretreated with base (MUGal hydrolysis). The conditions noted are these: challenge at pH 7.1; activity of the variant/activity of WT GLA (SEQ ID NO: 5); yeast supernatant. Summed up:
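Supernatants from INVSc1 yeast expressing GLA variants (SD-Ura, 66-84 h, 30° C) were mixed with McIlvaine buffer pH 7.0-8.2 or 200 mM sodium bicarbonate pH 9.1-9.7 and held 1-18 h at 37° C. Residual activity was then measured on MUGal at pH 4.8/4.3, 37° C, 30-180 min, by fluorescence (Ex 355/Em 448 nm).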

Series [2] in a line: HTP-analysis of supernatants pretreated with acid (MUGal hydrolysis). The settings on record: challenge at pH 4.2; activity of the variant/activity of WT GLA (SEQ ID NO: 5); yeast supernatant. An outline of the steps: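 Supernatants from INVSc1 yeast secreting GLA variants were challenged at 37° C. for 1-3 h in McIlvaine buffer at pH 3.3-4.3. Residual activity was then measured on 4 mM MUGal substrate stock at pH 4.8 with citrate buffer pH 4.3, over 30-180 min at 37° C. Reactions were quenched with sodium carbonate and read by fluorescence (Ex 355/Em 448 nm).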

Series [3] is described as follows: HTP-analysis of yeast culture supernatants, no challenge (MUGal hydrolysis). The settings on record: activity of the variant/activity of WT GLA (SEQ ID NO: 5), yeast supernatant. An outline of the steps: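 Activity read as 4-methylumbelliferyl α-D-galactopyranoside hydrolysis: fluorescence (355/448 nm) after sodium carbonate stop, following 30-180 min at 37° C with 2 mM MUGal stock at pH 4.6–4.8. Enzyme source is unchallenged culture supernatant of INVSc1 yeast expressing GLA variants, grown 66-84 h at 30° C.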

Numbering of substitutions follows the chain as printed.

The source of these data is patent US11278600B2, “Human alpha-galactosidase variants” (Codexis, Inc., priority 2014, dated 2022).

B1: 191 (protein)
chain: LDNGLARTPTMGWLHWERFMCNLDCQEEPDSCISEKLFMEMAELMVSEGWKDAGYEYLCIDDCWMAPQRDSEGRLQADPQRFPHGIRQLANYVHSKGLKLGIYADVGNKTCAGFPGSFGYYDIDAQTFADWGVDLLKFDGCYCDSLENLADGYKHMSLALNRTGRSIVYSCEWPLYMSPFQKPNYTEIRQYCNHWRNFADIDDSWKSIKSILDWTSFNQERIVDVAGPGGWNDPDMLVIGNFGLSWNQQVTQMALWAIMAAPLFMSNDLRHISPQAKALLQDKDVIAINQDPLGKQGYQLRQGDNFEVWERPLSGLAWAVAMINRQEIGGPRSYTIAVASLGKGVACNPACFITQLLPVKRKLGFYEWTSRLRSHINPTGTVLLQLENTMQMSKDLLL
modifications: Synthetic Polypeptide sequence of Variant No. 191 of mature Human GLA
With B1, in series [1], the “Relative Activity of GLA Variants After Challenge at pH 7.1” value (“Relative Activity … at pH 7.1” for short) is “+ (+ = 0.5 to 1.5 relative activity over WT GLA (SEQ ID NO: 5))”. Further, the “Relative Activity of GLA Variants After Challenge at pH 4.2” value (from here on “Relative Activity … at pH 4.2”) in series [2] is recorded as “++ (++ = >1.5 to 2.5 relative activity over WT GLA (SEQ ID NO: 5))”. In series [3], the “Relative Activity of GLA Variants After No Challenge (NC)” value is recorded as “+ (+ = 0.5 to 1.5 relative activity over WT GLA (SEQ ID NO: 5))”.

B2: 46 (protein)
chain: B1 chain with S178W, E387R
modifications: Synthetic Polypeptide sequence of Variant No. 46 of mature Human GLA
Turning to B2, in series [1], the “Relative Activity … at pH 7.1” value is “+ (+ = 0.5 to 1.5 relative activity over WT GLA (SEQ ID NO: 5))”. Moreover, the “Relative Activity … at pH 4.2” value in series [2] is listed as “+++ (+++ = >2.5 relative activity over WT GLA (SEQ ID NO: 5))”. Further, the “Relative Activity of GLA Variants After No Challenge (NC)” value in series [3] was “+ (+ = 0.5 to 1.5 relative activity over WT GLA (SEQ ID NO: 5))”.

B3: 47 (protein)
chain: B1 chain with S178W, E387T
modifications: Synthetic Polypeptide sequence of Variant No. 47 of mature Human GLA
Regarding B3, the “Relative Activity … at pH 7.1” value in series [1] was “+ (+ = 0.5 to 1.5 relative activity over WT GLA (SEQ ID NO: 5))”. Besides, the “Relative Activity … at pH 4.2” value in series [2] is “++ (++ = >1.5 to 2.5 relative activity over WT GLA (SEQ ID NO: 5))”. Further, in series [3], the “Relative Activity of GLA Variants After No Challenge (NC)” value is recorded as “+ (+ = 0.5 to 1.5 relative activity over WT GLA (SEQ ID NO: 5))”.

B4: 40 (protein)
chain: B1 chain with S178W, L396R
modifications: Synthetic Polypeptide sequence of Variant No. 40 of mature Human GLA
As to B4, the “Relative Activity … at pH 7.1” value in series [1] is “++ (++ = >1.5 to 2.5 relative activity over WT GLA (SEQ ID NO: 5))”. In series [2], the “Relative Activity … at pH 4.2” value was “++ (++ = >1.5 to 2.5 relative activity over WT GLA (SEQ ID NO: 5))”. Besides, in series [3], the “Relative Activity of GLA Variants After No Challenge (NC)” value is “++ (++ = >1.5 to 2.5 relative activity over WT GLA (SEQ ID NO: 5))”.

B5: 48 (protein)
chain: B1 chain with E40D, S178W
modifications: Synthetic Polypeptide sequence of Variant No. 48 of mature Human GLA
For the molecule B5, in series [1], the “Relative Activity … at pH 7.1” value is on record as “+ (+ = 0.5 to 1.5 relative activity over WT GLA (SEQ ID NO: 5))”. The “Relative Activity … at pH 4.2” value in series [2] is reported as “+ (+ = 0.5 to 1.5 relative activity over WT GLA (SEQ ID NO: 5))”. Besides, the “Relative Activity of GLA Variants After No Challenge (NC)” value in series [3] is “+ (+ = 0.5 to 1.5 relative activity over WT GLA (SEQ ID NO: 5))”.

B6: 44 (protein)
chain: B1 chain with S178W, E387K
modifications: Synthetic Polypeptide sequence of Variant No. 44 of mature Human GLA
B6: the “Relative Activity … at pH 7.1” value in series [1] is “+ (+ = 0.5 to 1.5 relative activity over WT GLA (SEQ ID NO: 5))”. Besides, in series [2], the “Relative Activity … at pH 4.2” value is “++ (++ = >1.5 to 2.5 relative activity over WT GLA (SEQ ID NO: 5))”. Besides, the “Relative Activity of GLA Variants After No Challenge (NC)” value in series [3] is “+ (+ = 0.5 to 1.5 relative activity over WT GLA (SEQ ID NO: 5))”.

B7: 42 (protein)
chain: B1 chain with S178W, E367N
modifications: Synthetic Polypeptide sequence of Variant No. 42 of mature Human GLA
Regarding B7, the “Relative Activity … at pH 7.1” value in series [1] was “+++ (+++ = >2.5 relative activity over WT GLA (SEQ ID NO: 5))”. Besides, in series [2], the “Relative Activity … at pH 4.2” value is on record as “+++ (+++ = >2.5 relative activity over WT GLA (SEQ ID NO: 5))”. The “Relative Activity of GLA Variants After No Challenge (NC)” value in series [3] is on record as “+++ (+++ = >2.5 relative activity over WT GLA (SEQ ID NO: 5))”.

B8: 43 (protein)
chain: B1 chain with S178W, E367T
modifications: Synthetic Polypeptide sequence of Variant No. 43 of mature Human GLA
Take B8: the “Relative Activity … at pH 7.1” value in series [1] is recorded as “+ (+ = 0.5 to 1.5 relative activity over WT GLA (SEQ ID NO: 5))”. Moreover, the “Relative Activity … at pH 4.2” value in series [2] was “+ (+ = 0.5 to 1.5 relative activity over WT GLA (SEQ ID NO: 5))”. Further, the “Relative Activity of GLA Variants After No Challenge (NC)” value in series [3] is given as “+ (+ = 0.5 to 1.5 relative activity over WT GLA (SEQ ID NO: 5))”.

B9: 45 (protein)
chain: B1 chain with S178W, E387Q
modifications: Synthetic Polypeptide sequence of Variant No. 45 of mature Human GLA
Consider B9, for which the “Relative Activity … at pH 7.1” value in series [1] is “++ (++ = >1.5 to 2.5 relative activity over WT GLA (SEQ ID NO: 5))”. Besides, the “Relative Activity … at pH 4.2” value in series [2] is on record as “++ (++ = >1.5 to 2.5 relative activity over WT GLA (SEQ ID NO: 5))”. For the same molecule, the “Relative Activity of GLA Variants After No Challenge (NC)” value in series [3] is given as “++ (++ = >1.5 to 2.5 relative activity over WT GLA (SEQ ID NO: 5))”.

B10: 41 (protein)
chain: B1 chain with S178W, L396T
modifications: Synthetic Polypeptide sequence of Variant No. 41 of mature Human GLA
In the case of B10, the “Relative Activity … at pH 7.1” value in series [1] is listed as “+ (+ = 0.5 to 1.5 relative activity over WT GLA (SEQ ID NO: 5))”. Also, in series [2], the “Relative Activity … at pH 4.2” value is on record as “+ (+ = 0.5 to 1.5 relative activity over WT GLA (SEQ ID NO: 5))”. The “Relative Activity of GLA Variants After No Challenge (NC)” value in series [3] is reported as “+ (+ = 0.5 to 1.5 relative activity over WT GLA (SEQ ID NO: 5))”.

B11: 49 (protein)
chain: B1 chain with S178W, F180R
modifications: Synthetic Polypeptide sequence of Variant No. 49 of mature Human GLA
On to B11, for which the “Relative Activity … at pH 7.1” value in series [1] is listed as “+ (+ = 0.5 to 1.5 relative activity over WT GLA (SEQ ID NO: 5))”. Also, the “Relative Activity … at pH 4.2” value in series [2] is recorded as “+ (+ = 0.5 to 1.5 relative activity over WT GLA (SEQ ID NO: 5))”. Besides, the “Relative Activity of GLA Variants After No Challenge (NC)” value in series [3] is listed as “+ (+ = 0.5 to 1.5 relative activity over WT GLA (SEQ ID NO: 5))”.
